Patent US20250277030A1, “ANTI-NAPI2B ANTIBODIES AND METHODS OF USE” (Zymeworks BC Inc., priority 2022, published 2025)

Tests used:
[1] = target: T1, human NaPi2b (Homo sapiens, UniProt O95436); assay: Flow cytometry binding to HEK293-6e cells transfected with human NaPi2b (Example 5); conditions: transfected HEK293-6e cells
T1 construct: host or cells: HEK293-6e
T1 sequence (O95436 1-690): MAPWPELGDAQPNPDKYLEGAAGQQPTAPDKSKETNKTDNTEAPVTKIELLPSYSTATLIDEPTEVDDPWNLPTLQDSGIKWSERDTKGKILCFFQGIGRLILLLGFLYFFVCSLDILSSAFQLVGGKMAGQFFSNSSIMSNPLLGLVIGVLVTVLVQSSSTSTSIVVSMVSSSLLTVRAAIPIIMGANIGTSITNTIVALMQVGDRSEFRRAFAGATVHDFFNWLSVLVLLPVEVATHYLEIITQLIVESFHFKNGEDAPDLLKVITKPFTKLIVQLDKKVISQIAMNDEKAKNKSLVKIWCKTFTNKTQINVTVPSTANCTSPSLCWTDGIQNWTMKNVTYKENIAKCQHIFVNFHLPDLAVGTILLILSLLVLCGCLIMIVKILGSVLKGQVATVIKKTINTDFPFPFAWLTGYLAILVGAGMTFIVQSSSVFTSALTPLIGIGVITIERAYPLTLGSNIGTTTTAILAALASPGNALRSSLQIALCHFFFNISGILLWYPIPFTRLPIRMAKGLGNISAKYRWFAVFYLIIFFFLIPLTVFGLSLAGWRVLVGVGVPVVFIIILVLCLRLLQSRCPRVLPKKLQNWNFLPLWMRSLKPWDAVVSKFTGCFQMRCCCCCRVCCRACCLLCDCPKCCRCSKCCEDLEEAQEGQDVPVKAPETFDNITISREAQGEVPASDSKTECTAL
Description: The binding cross-reactivity of humanized antibody variant v29456 to human, cynomolgus and mouse NaPi2b was assessed by flow cytometry using HEK293-6e transfected cells.
(§1) Briefly, HEK293-6e cells were transfected for ˜24 hours to transiently express human NaPi2b, cynomolgus or mouse NaPi2b, at 1 μg of DNA per 1 million cells. Following transfection, 50,000 cells per well were seeded in V-bottom 96-well plates and incubated with 200 nM of primary antibody for 18-24 hours at 4° C. to prevent internalization. Post-incubation, cells were washed and stained with anti-Human IgG Fc AF647 conjugate (Jackson Immuno Research Labs, West Grove, PA, Cat. No. 109-605-098, Lot. No. 124868) at 4° C. for 1 hour. Following staining and washing, fluorescence was detected by flow cytometry on BD LSRFortessa™ Cell Analyzer (BD Biosciences, Franklin Lake, NJ) with 10,000 minimum events collected per well. The AF647/APC-A GeoMean (fluorescence signal geometric mean, proportional to anti-Human AF647 binding) was calculated for the live singlet cell population for each primary antibody using FlowJo™ v8 software (BD Biosciences, Franklin Lake, NJ). The Bmax and Kd of each primary antibody were calculated using GraphPad Prism Version 9 (GraphPad Software, San Diego, CA)

[2] = target: T2, NaPi2b expressed on HCC-78 cells (Homo sapiens, UniProt O95436); assay: Cellular binding of antibody and ADCs to HCC-78 cells by flow cytometry (Example 14)
T2 construct: endogenous in cells; host or cells: HCC-78
T2 sequence (O95436 1-690): T1 sequence (O95436 1-690)
Description: as §1
The ability of ADCs to bind to cells expressing NaPi2b was assessed. […] Binding to endogenous high NaPi2b-expressing cell lines IGROV-1 and HCC-78 was assessed by flow cytometry according to methods described in Example 5.

[3] = system: NCI-H441 cells; assay: Internalization by flow cytometry in NCI-H441 cells; assay type: cell-based, human; conditions: antibody 10 nM
Description: Briefly, antibodies were fluorescently labeled by coupling to a Fab fragment AF488 conjugate targeting anti-Human IgG Fe (Jackson Immuno Research Labs, West Grove, PA; Cat. No. 109-547-008) at a 1:1 molar ratio in PBS pH 7.4 (Thermo Fisher Scientific, Waltham, MA; Cat. No. 10010-023), for 24 hours at 4° C. Cells were seeded at 50,000 cells/well in RPMI 1640, ATCC modification (Thermo Fisher Scientific, Waltham, MA) supplemented with 10% fetal bovine serum (Thermo Fisher Scientific, Waltham, MA) in 48-well plates and incubated overnight under standard culturing conditions (37° C./5% CO2) to allow attachment. […] Following incubation, cells were dissociated, washed, and surface AF488 fluorescence was quenched using an anti-AF488 antibody (Life Technologies, Carlsbad, CA; Cat. No. A-11094) at 100 nM for 30 minutes at 4° C. […] (internalized fluorescence) was detected by flow cytometry on a BD LSRFortessa™ Cell Analyzer (BD Biosciences, Franklin Lake, NJ) with 1,000 minimum events collected per well. The AF488/FITC-A GeoMean (fluorescence signal geometric mean, proportional to anti-Human Fab AF488 labelling) was calculated for the live single cell population using FlowJo™ Version 10.8.1 (BD Biosciences, Franklin Lake, NJ) and plotted using GraphPad Prism Version 9 (GraphPad Software, San Diego, CA).

[4] = target: T3, NaPi2b expressed on TOV-21G cells (Homo sapiens, UniProt O95436); assay: Cellular binding to TOV-21G cells by flow cytometry (Example 19); conditions: NB = no binding (apparent Kd >150 nM)
T3 construct: IGROV-1 and TOV-21G cells express endogenous NaPi2b at high and moderate levels, respectively; endogenous in cells; host or cells: TOV-21G
T3 sequence (O95436 1-690): T1 sequence (O95436 1-690)
Description: Briefly, cells were seeded at 50,000 cells/well in conical-bottom 96-well plates and treated with test antibody for 24 hours at 4° C. to prevent internalization. Palivizumab (anti-RSV antibody, v22277) was included as a negative control. […] Following incubation, cells were washed and stained with anti-Human IgG Fc AF647 conjugate (Jackson Immuno Research Labs, West Grove, PA; Cat. No. 109-605-098) at 4° C. for 30 min. Following incubation and washing, fluorescence was detected by flow cytometry on a BD LSRFortessa™ Cell Analyzer (BD Biosciences, Franklin Lake, NJ) with 1,000 minimum events collected per well. The AF647/APC-A GeoMean (fluorescence signal geometric mean, proportional to anti-Human AF647 binding) was calculated for the live cell population using FlowJo™ Version 10.8.1 (BD Biosciences, Franklin Lake, NJ) and plotted for each test antibody using GraphPad Prism Version 9 (GraphPad Software, San Diego, CA).
The ability of the humanized antibody variants v38591 and v29456 to bind to NaPi2b expressed on cells was assessed on endogenous NaPi2b-expressing tumor cell lines IGROV-1 (ovarian adenocarcinoma) and TOV-21G (ovarian carcinoma) by flow cytometry. IGROV-1 and TOV-21G cells express endogenous NaPi2b at high and moderate levels, respectively, as described in Example 10.
Cellular binding was performed according to methods described in Example 13.

v22277: anti-RSV antibody palivizumab, negative control; has a heterodimeric Fc [reference compound]
Binding to human NaPi2b, in words [1]: did not bind
Binding to HCC-78 cells, in words [2]: did not bind
Internalized Fluorescence Fold-Over Palivizumab ([3]; NCI-H441, 5 hrs): 1.0 fold
Internalized Fluorescence Fold-Over Palivizumab ([3]; NCI-H441, 24 hrs): 1.0 fold
Kd [4]: > 0.15 µM
